Source: US20230340147A1 (published 2023)
Where a chain is given by its changes, count along the chain named. “And” between values parts separate entries of the source, which are not always exact repeats. Identical values can stand only once. Ends that are not written are not given here. * marks the point of attachment. G0F = octasaccharide N-glycan with alpha-1,6 core fucose (Formula Ib, linkages Formula Ic), CC(=O)N[C@@H]1[C@@H](O)[C@H](O[C@@H]2O[C@H](CO)[C@@H](O[C@@H]3O[C@H](CO[C@H]4O[C@H](CO)[C@@H](O)[C@H](O)[C@@H]4O[C@@H]4O[C@H](CO)[C@@H](O)[C@H](O)[C@H]4NC(C)=O)[C@@H](O)[C@H](O[C@H]4O[C@H](CO)[C@@H](O)[C@H](O)[C@@H]4O[C@@H]4O[C@H](CO)[C@@H](O)[C@H](O)[C@H]4NC(C)=O)[C@@H]3O)[C@H](O)[C@H]2NC(C)=O)[C@@H](CO[C@@H]2O[C@@H](C)[C@@H](O)[C@@H](O)[C@@H]2O)O[C@H]1*

T1: PSA(67-79)-G0F (human, also: Asn3 N-glycosylated with octasaccharide carrying alpha-1,6 core fucose (G0F))
T1 construct: Synthetic glycopeptide (3.9 kDa as SPR analyte), made on Sieber Amide resin; For the ELISAs a biotinylated form was used (glutamic acid derivative with a PEG3-biotin side chain at the N-terminus); also called PSA(67-79)-GOF; glycopeptide of Formula Ib
T1 peptide: IRN(G0F)KSVILLGRHS-NH2

T2: Fucosylated PSA disaccharide glycopeptide (DP) (human, not fully specified (residue 3, C-terminus))
T2 construct: also called glycopeptide of Formula IV
T2 peptide: IRNKSVILLGRHS

B1: 2E9 (antibody, V domains shown)
VH: QSLEESGGDLVKPGASLTLTCTASGFSFSAGYDMCWVRQAPGKGLEWIACIYADGSGSTYYANWAKGRFTISLASSTTVTLQMTGLTAADTATYFCAREGADGPDYGYAAFSLWGPGTLVTVSS
VL: DVVMTQTPASVEAAVGGTVTIKCQASQSISNYFSWYQQKPGQPPKLLIYKASTLASGVPSRFKGSGSGTEFTLTISDLECADAATYYCQSFYGSVTSDYGGFAFGGGTEVVVK
notes: Rabbit monoclonal IgG (150 kDa); also called anti-1,6fucPSA antibody 2E9
B2: 13C5 (antibody, V domains shown)
VH: QSLEESGGDLVKPGASLTLTCTASGFSFSSGYDMCWVRQAPGKGLEWIGCIYADGSGTTYYATWAKGRFTISNPSATTVTLQMTRLTAADTATYFCAREGADNPNYGYAALRLWGPGTLVTVSS
VL: B1 VL with V2I, E12S, A13G, V19I, A51T, Y92W, V95G, T96S
notes: Rabbit monoclonal IgG (150 kDa); also called anti-1,6fucPSA antibody 13C5
B3: 2H9 (antibody, V domains shown)
VH: B2 VH with L45P, G49A, T58S, T63S, N73M, P74T, A76S, N103D
VL: B1 VL with V2I, F33L, S34A, A51T, T96S
notes: Rabbit monoclonal IgG (150 kDa); also called anti-1,6fucPSA antibody 2H9
B4: 2C11 (antibody, V domains shown)
VH: QSLEESGGGLVKPGGTLTLTCKASGFSFGPGYDMCWVRQAPGKGLEWIACIYADGSDNTYYASWARGRFTISKTSSTTVTLQMTRLTAADTATYFCAREGADNPNYGYAALRLWGPGTLVTVSS
VL: B1 VL with V2I, A14P, Q27E, N31S, F33L, S34A, A51T, D82N, T96S
notes: Rabbit monoclonal IgG (150 kDa); also called anti-1,6fucPSA antibody 2C11
B5: 3B10 (antibody, V domains shown)
VH: B4 VH with G29S, P30S, R66K
VL: B1 VL with V2I, A14P, S26T, N31S, F33L, A51T, D82N, F91Y, V95I, T96S
notes: Rabbit monoclonal IgG (150 kDa); also called anti-1,6fucPSA antibody 3B10
B6: 3H6 (antibody, V domains shown)
VH: B1 VH with A30S, N63S, L73K, A74P, G85R
VL: B1 VL with V2I, S28T, N31S, T53S, E70Q, T96S, Y99V
notes: Rabbit monoclonal IgG (150 kDa); also called anti-1,6fucPSA antibody 3H6

molecular target: PSA in formalin-fixed, paraffin-embedded (FFPE) prostate tissue (human) (UniProt P07288); assay: IHC on FFPE tumor tissue array (Tour of Tumor), prostate core
Sequence (P07288 25-261 limits assumed): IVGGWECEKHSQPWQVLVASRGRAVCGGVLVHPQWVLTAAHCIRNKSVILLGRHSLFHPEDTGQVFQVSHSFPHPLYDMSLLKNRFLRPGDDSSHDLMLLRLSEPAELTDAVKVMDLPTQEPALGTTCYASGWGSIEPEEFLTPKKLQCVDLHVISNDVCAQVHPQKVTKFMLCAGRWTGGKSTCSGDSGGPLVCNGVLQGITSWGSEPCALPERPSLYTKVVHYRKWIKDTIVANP

IHC staining intensity | Molecule
3 + and 3.5 + | anti-PSA mouse monoclonal antibody ER-PR8
3.5 + and 3.25 + | B1
3.5 + and 3 + | B2
3 + and 2.75 + | B3
3 + and 2.5 + | B4
3 + and 2.5 + | B5
3.25 + and 3 + | B6

Molecular target: T1, PSA(67-79)-G0F
Assay: SPR, Biacore 8k, 37 C, antibody captured by anti-rabbit Fc, peptide as analyte
Procedure: (§1) 30 μg/ml of a Fcγ-fragment binding, polyclonal goat anti-Rabbit IgG (GARb-Fcγ, Jackson Laboratories) in 10 mM sodium acetate buffer (pH 4.5) was pre-concentrated in all 16 flow cells, and up to 10000 RU GARb-Fcγ were immobilized according to the manufacturer's instructions using EDC/NHS chemistry. Rabbit IgG antibody (150 kDa) containing rabbit B-cell primary cell culture supernatants were diluted three-fold with sample buffer and were captured for 2 min under a flow rate of 5 μl/min on 8 sample flow cells. The antibody Capture Level (CL) was quantified in response units (RU) for each antibody.
(§2) The non fucosylated peptide analyte PSA(67-79)-G2 (3.7 kDa) and the fucosylated peptide analyte PSA(67-79)-GOF (3.9 kDa) were diluted in sample buffer in concentration series of 0 nM (buffer), 11 nM, 33 nM, 100 nM, 300 nM, and 900 nM. The 100 nM analyte samples were injected twice as control. The analytes were injected at 30 μl/min for 3 min association time. After the association phase of the 900 nM analyte injection a report point (Binding Late) was set to quantify the signal response at antibody ligand saturation. The antibody antigen dissociation was monitored for 5 min. The GARb-Fcγ antibody capture system was regenerated by injection of 10 mM glycine pH 2 at 30 μl/min for 1 min, followed by two consecutive 1 min injections of 10 mM glycine pH 2.25 at 30 μl/min. Overlay plots of concentration dependent antigen binding were generated and kinetic rates were determined with the Biacore 8k evaluation software using a Langmuir fitting model with RMAX local. The antibody/antigen complex half-life was calculated in minutes according to the formula t_{1/2 diss}=ln(2)/60*kd.
Molar Ratio (MR) indicating antibody-antigen binding stoichiometry was also determined and calculated as MR=(analyte Binding Late (RU)/antibody Capture Level (RU)) x (MW(antibody)/MW (analyte)).

MR (Molar Ratio) | Molecule
2 | B1
2 | B2
2 | B3
1 | B4
1 | B5
1 | B6

Molecular target: T1, PSA(67-79)-G0F
Assay: Hit-ELISA, biotinylated peptide on streptavidin plate, supernatant of recombinant expression
Procedure: Subsequently Hit-ELISA (i.e. ELISAs testing the binding to the screening agents) was used to identify B-cells expressing antibodies having desired binding characteristics, i.e. binding the PSA(67-79)-GOF peptide and capable of discriminating from PSA(67-79)-G2 and Asn-GOF. Biotinylated screening agents PSA(67-79)-GOF, PSA(67-79)-G2 and Asn-GOF were immobilized on the surface of streptavidin-coated 96-well plates (Nunc) by incubation of 100 μl per well of 100 ng/ml solutions for 60 min at room temperature, respectively. The plates were washed and 30 μl of rabbit B-cell culture supernatant was transferred to each well and incubated for 1 h at room temperature. For the detection of antibodies bound to the screening agents, HRP-labeled F(ab′)₂ goat anti-rabbit Fcγ (Dianova) and ABTS substrate solution (Roche) were used according to manufacturer's instructions. 16 clones were identified that bound to PSA(67-79)-GOF and discriminated from the negative screening agents according to the selected cut-offs (OD>0.6 in positive screening and <0.6 in negative screening). The 16 clones were selected for subsequent molecular cloning and recombinant expression as also described in Seeber et al., PLoS One 9(2014), issue 2, e86184. For 15 out of the 16 clones the sequences could be successfully cloned and the sequences encoding VH and VL could be unambiguously determined. The Hit-ELISA using the screening agents was then repeated with the supernatant of the recombinant expression and the more stringent cut-off criteria (OD>1 for positive screening agent and OD at/below average background signal for negative screening agents) were fulfilled for all 15 previously selected clones for which unambiguous VH and VL sequences were retrieved.

OD [OD] | Molecule
> 1 | B1
> 1 | B2
> 1 | B3
> 1 | B4
> 1 | B5
> 1 | B6

Molecular target: T1, PSA(67-79)-G0F
Assay: SPR, Biacore 8k, 37 C, antibody captured by anti-rabbit Fc, peptide as analyte, Langmuir fit
Procedure: as §1, §2

Kd [nM] | koff [s⁻¹] | kon [M⁻¹ s⁻¹] | t/2diss [min] | Molecule
0.6 | 0.00112 | 1.75e+06 | 10 | B1
0.4 | 0.00038 | 981000 | 31 | B2
2 | 0.00105 | 578000 | 11 | B3
1 | 0.00078 | 779000 | 15 | B4
11 | 0.0121 | 1.14e+06 | 1 | B5
4 | 0.00536 | 1.52e+06 | 2 | B6

Molecular target: T1, PSA(67-79)-G0F
Assay: SPR, Biacore 8k, 37 C, antibody captured by anti-rabbit Fc, 900 nM peptide injection
Procedure: as §1, §2

BL (Binding Late) [RU] | Molecule
27 | B1
29 | B2
54 | B3
53 | B4
31 | B5
25 | B6

Molecular target: T2, Fucosylated PSA disaccharide …
Assay: IHC peptide inhibition, antibody pre-incubated with peptide
Procedure: FIG. 8. Inhibition of anti-1,6fucPSA antibody binding by fucosylated PSA disaccharide glycopeptide (DP) in IHC analysis of FFPE samples of prostate adenocarcinoma samples. From top to bottom rows, exemplary anti-1,6fucPSA antibodies, FIG. 8A: 2E9, 3B10, and 3H6 at 2.5 μg/ml, 2.5 μg/ml, and 2.5 μg/ml, respectively; FIG. 8B: 13C5, 2H9, and 2C11 at 3 μg/ml, 2.5 μg/ml, and 1 μg/ml, respectively. For FIG. 8A and FIG. 8B, antibodies were pre-incubated with, from left to right columns, PBS buffer (control) or DP at 5×10⁻⁹ M, 5×10⁻⁸ M, 5×10⁻⁷ M, 5×10⁻⁶ M, or 5×10⁻⁵ M.
To verify that anti-1,6fucPSA antibodies recognize specifically and selectively the core-fucosylated PSA epitope, staining specificity was tested by peptide inhibition analysis.

peptide concentration giving complete inhibition [µM] | Molecule
5 | B1
5 | B2
5 | B3
5 | B4
5 | B5
5 | B6
